Two substances from US20060067910A1, “High-molecular weight derivatives of camptothecins” (priority 2002, published 2006) can be followed below.

Data set [1] concerns Mouse colon cancer Colon 26 tumor. The experiment in a line: Antitumor action, relative tumor volume after single intravenous administration. In kind it is in vivo. The settings on record: with smaller administration amount; single i.v. administration. As for the experimental part:
As an indication of toxicity, variation in body weight was also measured (Table 2).

Data set [2] in a line: Variation in body weight as an indication of toxicity, Colon 26 tumor-bearing mice. The format is in vivo, mouse. As for the experimental part: Mouse colon cancer Colon 26 tumor under successive cultivation under mouse skin was cut into blocks of approximately 2 mm square, and transplanted to under mouse skin using a trochar. […] As an indication of toxicity, variation in body weight was also measured (Table 2).

In the case of “condensate of a block copolymer of methoxypolyethylene glycol having a molecular weight of approximately 12000 and polyglutamic acid having a polymerization number of approximately 28, with 7-ethyl-10-hydroxycamptothecin [Compound 1]”, the “antitumor effect as compared with compound 2 (smaller drug content)” value in data set [1] is reported as “higher antitumor effect”. The “variation in body weight” value in data set [2] (dose 22.5 mg/kg i.v. once, day 0 after administration) turned out to be 1.0; in data set [2] (dose 22.5 mg/kg i.v. once, day 2 after administration) it was 0.98; in data set [2] (dose 22.5 mg/kg i.v. once, day 5 after administration), 1.02; in data set [2] (dose 22.5 mg/kg i.v. once, day 9 after administration), 1.06; in data set [2] (dose 22.5 mg/kg i.v. once, day 12 after administration) it was 1.03; in data set [2] (dose 22.5 mg/kg i.v. once, day 14 after administration), 0.96. Further, the “variation in body weight” value is given as 1.0 in data set [2] (dose 45.0 mg/kg i.v. once, day 0 after administration); 0.94 in data set [2] (dose 45.0 mg/kg i.v. once, day 2 after administration); 0.91 in data set [2] (dose 45.0 mg/kg i.v. once, day 5 after administration); 0.97 in data set [2] (dose 45.0 mg/kg i.v. once, day 7 after administration); 1.03 in data set [2] (dose 45.0 mg/kg i.v. once, day 12 after administration); 1.04 in data set [2] (dose 45.0 mg/kg i.v. once, day 14 after administration).

As for “condensate of a block copolymer of mono-methoxypolyethylene glycol having a molecular weight of approximately 12000 and polyglutamic acid having a polymerization number of approximately 7, with 7-ethyl-10-hydroxycamptothecin [Compound 2]”, the “variation in body weight” value in data set [2] (dose 90.0 mg/kg i.v. once, day 0 after administration) is reported as 1.0; in data set [2] (dose 90.0 mg/kg i.v. once, day 2 after administration), 0.96; in data set [2] (dose 90.0 mg/kg i.v. once, day 5 after administration), 1.00; in data set [2] (dose 90.0 mg/kg i.v. once, day 12 after administration) it was 0.90; in data set [2] (dose 90.0 mg/kg i.v. once, day 14 after administration) it was 0.83; in data set [2] (dose 180.0 mg/kg i.v. once, day 0 after administration), 1.0. In addition, the “variation in body weight” value was found to be 0.91 in data set [2] (dose 180.0 mg/kg i.v. once, day 2 after administration); 0.99 in data set [2] (dose 180.0 mg/kg i.v. once, day 5 after administration); 0.99 in data set [2] (dose 180.0 mg/kg i.v. once, day 7 after administration); 1.04 in data set [2] (dose 180.0 mg/kg i.v. once, day 9 after administration); 0.94 in data set [2] (dose 180.0 mg/kg i.v. once, day 12 after administration); 0.94 in data set [2] (dose 180.0 mg/kg i.v. once, day 14 after administration).
